Experimental data: patent US20210238298A1 (ALLIGATOR BIOSCIENCE, published 2021)
Numbering of substitutions follows the chain as printed. Blank lines part the entries; values can stand above or below the binder they belong to.

Columns and labels:
[1] = target: T1, Human OX40 (R&D systems, #3358_OX) (human, UniProt P43489 29-216); assay: dual ELISA: OX40-Fc coated, bispecific antibody in dilutions, biotinylated CD137-Fc (1 ug/ml), HRP-streptavidin; the signal needs both bindings at once
T1 construct: Bought; Several catalogue numbers are given for it; also called human OX40 (R&D Systems, 3388-OX); OX40-Fc (R&D systems, #3358_OX); not shown: Fc part
T1 sequence: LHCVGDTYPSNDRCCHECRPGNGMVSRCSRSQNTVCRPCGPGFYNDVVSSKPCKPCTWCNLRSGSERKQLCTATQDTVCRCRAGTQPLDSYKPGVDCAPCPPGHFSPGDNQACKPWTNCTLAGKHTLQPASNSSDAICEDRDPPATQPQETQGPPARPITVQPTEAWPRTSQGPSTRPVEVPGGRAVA

[2] = target: T2, CD40 (Ancell) (UniProt P25942 21-193); assay: ELISA, coated CD40-Fc
T2 construct: also called CD40-Fc (Ancell #504-820); not shown: Fc part, not described
Protocol: (§1) ELISA plates (Greiner #655074) were coated with 50 μl/well of recombinant human OX40 (R&D #1493-CD), CD40-Fc (Ancell #504-820) or CD137 (R&D #838-4B) diluted to a final concentration of 0.5 μg/ml in PBS for 1 h at 37° C. or overnight at 4° C. Plates were washed with PBS+0.05% TWEEN20 (PBST), followed by block with PBST+1% bovine serum albumin (BSA). Antibody samples were prepared as serial 1/10 dilutions from 10-0.01 μg/ml in PBST+1% BSA and incubated for 1h in room temperature, followed by detection using a horse radish peroxidase-conjugated anti-human kappa light chain antibody (AbD Serotec #STAR127P) and developed using SuperSignal ELISA Pico Chemiluminescent substrate (Pierce ThermoScientific #37069).

[3] = target: CD137 on primary human CD8+ T cells (human, UniProt Q07011 24-255); assay: cell-based or functional assay
[4] = target: T1, Human OX40 (R&D systems, #3358_OX); assay: ELISA, coated recombinant human OX40
Protocol: as §1

[5] = target: T3, CD137 chimera 1554 (1411): human CD137 with mouse domains 3B, 4A and 4B (aa 97-159), on FreeStyle 293-F cells (human; mouse, UniProt P20334 96-159); assay: flow cytometry, 293-F transfectants
T3 construct: domain: 3B, 4A and 4B

[6] = target: T4, CD137 chimera 1555 (1412): human CD137 with mouse domains 1 and 4B and region of unknown function (aa 24-46 … (human; mouse, UniProt P20334 24-45; P20334 139-185); assay: flow cytometry, 293-F transfectants
T4 construct: domain: 1;domain: 4B and region of unknown function

[7] = target: extracellular part of OX40 from Macaca mulatta fused to the transmembrane and intracellular part of hCD40, on … (Macaca mulatta; human, UniProt A0A5F7ZKD5 21-541; P25942 194-277); assay: flow cytometry, macOX40-HEK cells; 95% confidence interval
Protocol: For the assay, the transfected cells were incubated with the test antibodies and controls for 30 min at 4° C. and then detected with a-huIgG-PE (Jackson Immunoresearch) 30 min 4° C. Cells were analyzed by flow cytometry with FACS Verse (BD Biosciences).

[8] = target: T5, OX40 chimera 1549: human OX40 with mouse domains 1A and 4B and non-annotated extracellular region (aa 30-65 … (human; mouse, UniProt P47741 26-61; P47741 125-211); assay: flow cytometry, 293-F transfectants
T5 construct: domain: 1A;domain: 4B and non-annotated extracellular region; Limits derived as for 1544
T5 sequence: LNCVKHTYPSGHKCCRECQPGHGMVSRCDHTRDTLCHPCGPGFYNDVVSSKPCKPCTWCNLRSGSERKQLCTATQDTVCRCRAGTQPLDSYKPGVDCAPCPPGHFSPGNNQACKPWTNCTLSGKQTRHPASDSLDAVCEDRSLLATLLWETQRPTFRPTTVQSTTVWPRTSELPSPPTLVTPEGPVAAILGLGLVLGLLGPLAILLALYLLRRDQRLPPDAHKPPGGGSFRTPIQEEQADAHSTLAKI
Protocol: (§2) The mouse/human chimeras were transiently transfected into FreeStyle 293-F cells (Invitrogen), incubated 48 hours in FreeStyle 293 expression medium (Invitrogen) 37 C, 8% CO₂, 135 rpm. The transfected cells were incubated with human OX40 antibodies, human OX40L (hOX40L, RnD Systems), mouse OX40L (mOX40L, RnD Systems) and controls for 30 min 4° C. and then detected with a-huIgG-PE (Jackson Immunoresearch) 30 min 4° C. Cells were analyzed with FACS Verse (BD Biosciences). Binding to the different chimeric constructs were calculated as relative (mean fluorescence intensity) MFI compared to the binding of the isotype control.

[9] = target: T6, OX40 chimera 1548: human OX40 with mouse module 3 and domains 4A and 4B (aa 108-167), on FreeStyle 293-F cells (human; mouse, UniProt P47741 104-165); assay: flow cytometry, 293-F transfectants
T6 construct: domain: module 3, 4A and 4B; Limits derived as for 1544
T6 sequence: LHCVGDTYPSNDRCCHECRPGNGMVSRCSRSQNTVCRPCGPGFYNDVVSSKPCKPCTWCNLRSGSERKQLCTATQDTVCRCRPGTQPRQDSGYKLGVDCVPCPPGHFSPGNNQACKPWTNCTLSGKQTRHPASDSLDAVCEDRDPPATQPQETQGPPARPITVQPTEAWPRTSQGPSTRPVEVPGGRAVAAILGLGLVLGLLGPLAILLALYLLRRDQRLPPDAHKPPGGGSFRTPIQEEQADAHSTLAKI
Protocol: as §2

[10] = target: T7, recombinant human CD137-Fc (R&D #838-4B) (human, UniProt Q07011 24-186); assay: ELISA
T7 construct: Bought; also called Human CD137 (R&D systems); CD137 (R&D Systems); not shown: Fc part, not described

[11] = target: T2, CD40 (Ancell); assay: ELISA
[12] = target: T8, murine OX40 (murine, UniProt P47741 20-211, limits assumed); assay: ELISA
T8 sequence (looked up): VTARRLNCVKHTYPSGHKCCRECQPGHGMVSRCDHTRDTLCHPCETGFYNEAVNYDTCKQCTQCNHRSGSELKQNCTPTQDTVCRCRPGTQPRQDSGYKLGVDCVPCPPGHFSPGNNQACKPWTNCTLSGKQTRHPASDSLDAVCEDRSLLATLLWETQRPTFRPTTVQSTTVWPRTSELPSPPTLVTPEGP

[13] = target: T9, CTLA-4 (BMS, Orencia) (human, UniProt P16410 38-152); assay: cell-based or functional assay
[14] = target: T9, CTLA-4 (BMS, Orencia); assay: cell-based or functional assay; remark: listed apart in the source

T2 sequence (P25942 21-193 limits assumed): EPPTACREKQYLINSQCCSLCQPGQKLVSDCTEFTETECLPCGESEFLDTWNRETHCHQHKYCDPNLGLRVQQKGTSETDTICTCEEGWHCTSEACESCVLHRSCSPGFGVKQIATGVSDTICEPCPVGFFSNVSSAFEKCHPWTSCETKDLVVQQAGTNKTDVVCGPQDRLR
Chain of CD137 on primary human CD8+ T cells (Q07011 24-255 limits assumed): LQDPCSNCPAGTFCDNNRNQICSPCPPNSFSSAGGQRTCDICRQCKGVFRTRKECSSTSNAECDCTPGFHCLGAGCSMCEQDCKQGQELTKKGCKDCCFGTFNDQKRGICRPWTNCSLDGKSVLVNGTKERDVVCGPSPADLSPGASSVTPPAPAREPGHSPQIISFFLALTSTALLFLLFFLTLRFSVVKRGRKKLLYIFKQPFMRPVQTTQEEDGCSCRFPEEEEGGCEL
T9 sequence (P16410 38-152 limits assumed): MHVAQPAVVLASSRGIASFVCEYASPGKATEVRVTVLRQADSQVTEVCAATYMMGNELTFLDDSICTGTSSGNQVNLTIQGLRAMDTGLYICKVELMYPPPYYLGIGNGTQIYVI
Chain of extracellular part of OX40 from Macaca mulatta fused to the transmembrane and intracellular part of hCD40, on … (P25942 other isoform, or with tags, fused parts or gaps): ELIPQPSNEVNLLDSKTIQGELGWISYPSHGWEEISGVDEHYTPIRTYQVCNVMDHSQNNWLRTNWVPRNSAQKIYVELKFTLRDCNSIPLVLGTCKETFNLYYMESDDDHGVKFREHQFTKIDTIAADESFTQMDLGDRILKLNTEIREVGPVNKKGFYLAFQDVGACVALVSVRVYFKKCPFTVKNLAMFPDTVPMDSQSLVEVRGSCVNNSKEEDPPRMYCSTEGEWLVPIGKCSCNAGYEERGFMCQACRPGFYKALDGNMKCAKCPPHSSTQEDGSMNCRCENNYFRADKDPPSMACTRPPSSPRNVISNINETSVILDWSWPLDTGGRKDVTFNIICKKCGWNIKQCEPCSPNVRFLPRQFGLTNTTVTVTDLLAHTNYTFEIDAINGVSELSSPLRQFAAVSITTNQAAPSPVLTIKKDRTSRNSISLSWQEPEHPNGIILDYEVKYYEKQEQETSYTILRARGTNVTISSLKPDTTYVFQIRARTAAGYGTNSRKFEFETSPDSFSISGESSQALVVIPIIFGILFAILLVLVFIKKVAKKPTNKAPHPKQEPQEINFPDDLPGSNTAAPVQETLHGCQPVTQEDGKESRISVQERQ
T7 sequence (Q07011 24-186 limits assumed): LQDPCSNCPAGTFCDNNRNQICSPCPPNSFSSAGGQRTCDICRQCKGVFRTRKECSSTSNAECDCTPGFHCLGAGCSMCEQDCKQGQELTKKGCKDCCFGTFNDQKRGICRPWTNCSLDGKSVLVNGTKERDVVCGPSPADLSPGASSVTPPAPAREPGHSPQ
T3 sequence (P20334 other isoform, or with tags, fused parts or gaps mutant limits assumed): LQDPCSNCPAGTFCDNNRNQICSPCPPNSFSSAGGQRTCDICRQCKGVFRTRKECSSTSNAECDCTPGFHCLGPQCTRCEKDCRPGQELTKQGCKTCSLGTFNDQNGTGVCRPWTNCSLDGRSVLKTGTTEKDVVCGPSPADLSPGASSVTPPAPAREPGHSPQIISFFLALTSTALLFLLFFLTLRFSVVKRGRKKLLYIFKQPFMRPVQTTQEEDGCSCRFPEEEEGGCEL
T4 sequence (P20334 other isoform, or with tags, fused parts or gaps mutant limits assumed): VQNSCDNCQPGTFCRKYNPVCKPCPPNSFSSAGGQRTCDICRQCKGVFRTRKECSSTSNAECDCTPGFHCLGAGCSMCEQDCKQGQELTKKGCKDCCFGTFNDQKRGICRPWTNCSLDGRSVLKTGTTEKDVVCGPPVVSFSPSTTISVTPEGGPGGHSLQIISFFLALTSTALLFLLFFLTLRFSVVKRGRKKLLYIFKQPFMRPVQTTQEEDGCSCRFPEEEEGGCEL

B1: 1526/1527-1204/1205 (bispecific antibody, human IgG1, kappa)
heavy chain fused to scFv (VH1-Hc-linker-VH2/VL2): not shown
light chain (VL1-Lc): DIQMTQSPSSLSASVGDRVTITCRASQSISSYLNWYQQKPGKAPKLLIYAASSLQSGVPSRFSGSGSGTDFTLTISSLQPEDFATYYCQQYGSDSLLTFGQGTKLEIKRTVAAPSVFIFPPSDEQLKSGTASVVCLLNNFYPREAKVQWKVDNALQSGNSQESVTEQDSKDSTYSLSSTLTLSKADYEKHKVYACEVTHQGLSSPVTKSFNRGEC
notes: OX40 x CD137 bispecific antibody, scFv-IgG format
binding result [1]: binds

B2: anti-CD137 antibody 1204/1205 (antibody, IgG1, V domains shown)
VH: EVQLLESGGGLVQPGGSLRLSCAASGFTFSSYYMGWVRQAPGKGLEWVSGIGSYYGYTGYADSVKGRFTISRDNSKNTLYLQMNSLRAEDTAVYYCARAYYDYNYYYAYFDYWGQGTLVTVSS
VL: DIQMTQSPSSLSASVGDRVTITCRASQSISSYLNWYQQKPGKAPKLLIYAASSLQSGVPSRFSGSGSGTDFTLTISSLQPEDFATYYCQQSVPHYPFTFGQGTKLEIK
notes: Produced as IgG; also called 1204-bio
binding result [2]: no binding (tested: 10 µg/ml)
Max IFN-γ [3]: 153000 pg/mL
Mean IFN-γ [3]: 64400 pg/mL
Min IFN-γ [3]: 13100 pg/mL
binding result [4]: no binding (tested: 10 µg/ml)
relative binding (MFI sample/isotype control, normalised to full-length human CD137) [5]: 0.73
relative binding (MFI sample/isotype control, normalised to full-length human CD137) [6]: 0.28

B5: anti-CD137 antibody 1214/1215 (antibody, IgG1, V domains shown)
VH: EVQLLESGGGLVQPGGSLRLSCAASGFTFSSYAMSWVRQAPGKGLEWVSSIGSGGGYTGYADSVKGRFTISRDNSKNTLYLQMNSLRAEDTAVYYCARVGHPFDYWGQGTLVTVSS
VL: DIQMTQSPSSLSASVGDRVTITCRASQSISSYLNWYQQKPGKAPKLLIYAASSLQSGVPSRFSGSGSGTDFTLTISSLQPEDFATYYCQQDAYPHTFGQGTKLEIK
notes: Produced as IgG; also called 1214-bio
binding result [2]: no binding (tested: 10 µg/ml)
Max IFN-γ [3]: 122000 pg/mL
Mean IFN-γ [3]: 51800 pg/mL
Min IFN-γ [3]: 8210 pg/mL
binding result [4]: no binding (tested: 10 µg/ml)

B6: anti-CD137 antibody 1620/1621 (antibody, IgG1, V domains shown)
VH: EVQLLESGGGLVQPGGSLRLSCAASGFTFSGYYMYWVRQAPGKGLEWVSGISSSGSYTYYADSVKGRFTISRDNSKNTLYLQMNSLRAEDTAVYYCARSVGPYFDYWGQGTLVTVSS
VL: B5 VL with D91G, A92V, Y93G, H95Y
notes: Produced as IgG
binding result [2]: no binding (tested: 10 µg/ml)
Max IFN-γ [3]: 123000 pg/mL
Mean IFN-γ [3]: 52400 pg/mL
Min IFN-γ [3]: 7730 pg/mL
binding result [4]: no binding (tested: 10 µg/ml)

B7: bispecific molecule 1170/1263 (OX40 x CTLA-4) (bispecific antibody, human IgG1, kappa)
heavy: not shown
light: DIQMTQSPSSLSASVGDRVTITCRASQSISSYLNWYQQKPGKAPKLLIYAASSLQSGVPSRFSGSGSGTDFTLTISSLQPEDFATYYCQQGHGSYPHTFGQGTKLEIKRTVAAPSVFIFPPSDEQLKSGTASVVCLLNNFYPREAKVQWKVDNALQSGNSQESVTEQDSKDSTYSLSSTLTLSKADYEKHKVYACEVTHQGLSSPVTKSFNRGECSGGGGSGGGGSAPLKIQAYFNETADLPCQFANSQNLSLSELVVFWQDQENLVLNEVYLGKERFDSVDSKYMGRTSFDSDSWTLRLHNLQIKDKGRYQCIIHHKKPTGMINIHQMNSELSVLA
Mean IL-2 level (pg/ml) induced at 1.5 nM [13]: 2580 pg/mL
Fold change in IL-2 level induced by bispecific molecule compared to the corresponding combination of the monospecific molecules at 1.5 nM [14]: 4.7 fold

Next, values leading:

EC50 [7]: 0.16 to 0.242 µg/mL
relative MFI vs isotype control [8]: 11.3
relative MFI vs isotype control [9]: 15.8
binding result [10]: no binding
binding result [11]: no binding
binding result [12]: no binding
B3: anti-OX40 antibody 1166/1167 (antibody, V domains shown)
VH: EVQLLESGGGLVQPGGSLRLSCAASGFTFGGYYMSWVRQAPGKGLEWVSAISGSGGSTYYADSVKGRFTISRDNSKNTLYLQMNSLRAEDTAVYYCARYDYASMDYWGQGTLVTVSS
VL: B2 VL with S91Y, V92Y, P93W, H94Y, Y95G, P96L, F97S
notes: Tested as IgG

binding result [2]: no binding (tested: 10 µg/ml)
Max IFN-γ [3]: 32200 pg/mL
Mean IFN-γ [3]: 15100 pg/mL
Min IFN-γ [3]: 4160 pg/mL
binding result [4]: no binding (tested: 10 µg/ml)
B4: anti-CD137 antibody 1626/1627 (antibody, IgG1, V domains shown)
VH: EVQLLESGGGLVQPGGSLRLSCAASGFTFGGYSMYWVRQAPGKGLEWVSSIGGYYYSTYYADSVKGRFTISRDNSKNTLYLQMNSLRAEDTAVYYCARSYYGSIDYWGQGTLVTVSS
VL: B2 VL with S91G, V92T, P93G, H94Y, Y95G, F97L
notes: Produced as IgG; also called 1626-bio

Mean IL-2 level (pg/ml) induced at 1.5 nM [13]: 3200 pg/mL
B8: bispecific molecule 1526/1585 (OX40 x CTLA-4) (bispecific antibody, human IgG1, kappa)
heavy: not shown
light: B7 light with G91Y, H92G, G93S, S94D, Y95S, P96L, H97L
